Source: article PMC5330652 (Journal of the American Chemical Society, 2017)

Target: the molecule itself
Assay: negative-stain TEM + dynamic light scattering

B1: cowpea chlorotic mottle virus (CCMV) capsid protein (natural protein)
chain: MSTVGTGKLTRAQRRAAARKNKRNTRVVQPVIVEPIASGQGKAIKAWTGYSVSKWTASCAAAEAKVTSAITISLPNELSSERNKQLKVGRVLLWLGLLPSVSGTVKSCVTETQTTAAASFQVALAVADNSKDVVAAMYPEAFKGITLEQLTADLTIYLYSSAALTEGDVIVHLEVEHVRPTFDDSFTPVY
- stoichiometry N: 60
